Literature values in paper PMC6191488.

Target: IgE Fc (Homo sapiens) (UniProt P01854)
Sequence of UniProt P01854 (P01854 104-427): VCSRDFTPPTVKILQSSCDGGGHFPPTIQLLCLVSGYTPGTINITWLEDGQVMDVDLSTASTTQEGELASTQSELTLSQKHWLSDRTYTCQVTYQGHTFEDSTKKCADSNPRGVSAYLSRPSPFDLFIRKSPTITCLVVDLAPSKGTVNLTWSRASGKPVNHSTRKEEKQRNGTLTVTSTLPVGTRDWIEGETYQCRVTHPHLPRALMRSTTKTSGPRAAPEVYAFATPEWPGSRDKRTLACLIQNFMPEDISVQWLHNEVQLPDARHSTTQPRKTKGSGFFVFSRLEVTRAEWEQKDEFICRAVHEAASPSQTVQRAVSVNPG

Kd: 0.37 nM
Substance: FcεRI alpha chain ECD (from UniProt P12319)
